From patent publication US20230265185A1 (NATIONAL RESEARCH COUNCIL OF CANADA, published 2023)
Values belong to the binder of their own block, whether it stands above or below them.

Experiments:
[1] = target: T1, full-length hCD22-ECD (668aa) displayed on yeast cells (human, UniProt P20273 20-687); assay: yeast display cell ELISA, OD on denatured over non-denatured CD22 ECD
T1 construct: extracellular domain; Yeast surface display fusion Aga2-HA-(insert)-MYC; also called Bin 8; CD22-ECD Full lenght; not shown: Aga2-HA display fusion partner of vector pPNL6; MYC tag
T1 sequence (looked up): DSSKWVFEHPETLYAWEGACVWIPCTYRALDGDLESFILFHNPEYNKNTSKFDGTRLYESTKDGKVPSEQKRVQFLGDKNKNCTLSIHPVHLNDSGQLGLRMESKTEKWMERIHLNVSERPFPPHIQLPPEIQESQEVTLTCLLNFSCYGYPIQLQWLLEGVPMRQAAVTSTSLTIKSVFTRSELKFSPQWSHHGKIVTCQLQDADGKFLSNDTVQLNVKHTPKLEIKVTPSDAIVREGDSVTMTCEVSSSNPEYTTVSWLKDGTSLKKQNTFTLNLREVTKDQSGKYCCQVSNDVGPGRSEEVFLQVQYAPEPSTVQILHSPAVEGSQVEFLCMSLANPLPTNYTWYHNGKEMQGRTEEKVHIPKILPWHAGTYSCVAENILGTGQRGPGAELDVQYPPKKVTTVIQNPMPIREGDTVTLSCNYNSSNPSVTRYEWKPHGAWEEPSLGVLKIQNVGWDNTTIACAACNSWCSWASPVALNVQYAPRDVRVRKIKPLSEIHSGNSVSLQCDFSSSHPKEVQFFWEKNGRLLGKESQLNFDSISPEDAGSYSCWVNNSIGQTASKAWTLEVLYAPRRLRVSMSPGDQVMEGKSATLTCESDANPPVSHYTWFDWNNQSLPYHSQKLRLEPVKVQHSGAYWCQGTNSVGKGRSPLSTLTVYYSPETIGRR
Experimental: (§1) The YSD vector (pPNL6) was from The Pacific Northwest National Laboratory, USA. […] The HRP activity was assayed with substrate TMB (tetramethyl benzidine) according to the manufacture’s conditions and read at OD₄₅₀.
(§2) Table 7 depicts the assessment of the nature of the epitopes of CD22 sdAbs to determine if the epitopes for the sdAbs are continuous (linear) or non-continuous (conformational). […] The binding of each sdAb to native and denatured CD22 fragments was measured as OD₄₅₀, and the ratio of the binding to denatured CD22 to non-denatured CD22 was calculated, with the ratio ≥ 0.5 indicative linear (L), and the ratio < 0.5 indicative of conformational (C) epitopes.

[2] = target: T1, full-length hCD22-ECD (668aa) displayed …; assay: yeast display cell ELISA, heat denatured cells (80 C, 30 min)
Experimental: as §1, §2

[3] = target: T1, full-length hCD22-ECD (668aa) displayed …; assay: yeast display cell ELISA, native cells
Experimental: as §1, §2

[4] = target: T2, hCD22 fragment Bin 1, IVR1 (aa1-135), displayed on yeast cells (human, UniProt P20273 20-154); assay: yeast display cell ELISA, biotinylated sdAb 250 nM
T2 construct: range 1-135; Range is counted on the mature ECD, not on the UniProt entry; on P20273 it would be 20-154 (my arithmetic); also called CD22 Sub-Domain 1; not shown: Aga2-HA display fusion partner of vector pPNL6; MYC tag
T2 sequence (looked up): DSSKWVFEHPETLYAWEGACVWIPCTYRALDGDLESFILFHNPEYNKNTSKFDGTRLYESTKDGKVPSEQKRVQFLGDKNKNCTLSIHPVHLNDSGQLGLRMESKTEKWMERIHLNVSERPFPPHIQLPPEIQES
Experimental: as §1
(§3) The wells that gave rise to OD₄₅₀ above 0.25 were highlighted, indicating significant antibody-antigen interactions. All the sdAbs tested except hCd22_1ug-14 were assigned to specific Bin(s).

[5] = target: T2, hCD22 fragment Bin 1, IVR1 (aa1-135), …; assay: yeast display cell ELISA, OD on denatured over non-denatured CD22 fragment
Experimental: as §1, §2

[6] = target: T2, hCD22 fragment Bin 1, IVR1 (aa1-135), …; assay: yeast display cell ELISA, native cells
Experimental: as §1, §2

[7] = target: T3, hCD22 fragment Bin 4, IVR4 (aa303-405), displayed on yeast cells (human, UniProt P20273 322-424); assay: yeast display cell ELISA, biotinylated sdAb 250 nM
T3 construct: Range is counted on the mature ECD, not on the UniProt entry; on P20273 it would be 322-424 (my arithmetic); also called CD22 Sub-Domain 4; not shown: Aga2-HA display fusion partner of vector pPNL6; MYC tag
T3 sequence (looked up): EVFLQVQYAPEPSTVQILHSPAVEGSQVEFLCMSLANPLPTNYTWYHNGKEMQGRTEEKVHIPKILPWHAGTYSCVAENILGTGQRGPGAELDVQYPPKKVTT
Experimental: as §1, §3

[8] = target: T3, hCD22 fragment Bin 4, IVR4 (aa303-405), …; assay: yeast display cell ELISA, OD on denatured over non-denatured CD22 fragment
Experimental: as §1, §2

[9] = target: T3, hCD22 fragment Bin 4, IVR4 (aa303-405), …; assay: yeast display cell ELISA, heat denatured cells (80 C, 30 min)
Experimental: as §1, §2

[10] = target: T3, hCD22 fragment Bin 4, IVR4 (aa303-405), …; assay: yeast display cell ELISA, native cells
Experimental: as §1, §2

- CD22 Ratio (D/ND) [1]: 0
- Heat Inactivated CD22 OD [2]: 0 OD450
- Non denatured CD22 OD [3]: 0.789 OD450
B1: hCD22pas-32 (VHH)
VHH: QVQLVESGGGLVQAGGSLRLSCAVSGRIFRSYVLGWFRQAPGKERELVARIGWSDTYYADSVKGRFTISRDNAKNTVDLQMNSLKPEDTAVYYCAANSPPYGPQRDEFGYWGQGTQVTVSS
modifications: single biotin at the VHH C-terminal (biotinylation signal sequence)
notes: llama VHH, expressed in E. coli TG1, IMAC purified, monomeric SEC fraction; also called VHH # 15; 6-hCD22 pas-32

- OD450 [4]: 2.03 OD450
- CD22 Ratio (D/ND) [5]: 0.762
- Non denatured CD22 OD [6]: 2.32 OD450
B2: hCD221ug-80 (VHH)
VHH: QVQLVESGGGLVQPGGSLRLSCTFSGFTLDYYVMVWFRQAPGKEREAVSCITSDGVTYYADSVKGRFTISRDNAKNTVYLQMNRVKPEDTAVYYCAVDKPFYDGGIQYTCPVDFDSWGQGAQVTVSS
modifications: single biotin at the VHH C-terminal (biotinylation signal sequence)
notes: llama VHH, expressed in E. coli TG1, IMAC purified, monomeric SEC fraction; also called VHH # 1; 2-hCD22 1ug-80

- OD450 [7]: 0.752 OD450
- CD22 Ratio (D/ND) [8]: 0.557
- Heat Inactivated CD22 OD [9]: 0.686 OD450
- Non denatured CD22 OD [10]: 1.23 OD450
B3: hCD221ug-13 (VHH)
VHH: QVQLVESGGGLVQAGDSLRLSCAGSGGSFSSVTMAWFRQAPGKDREFVAAITWSSPSTYYADSVKGRFTISRDNAKNTVYLQMNSLKPEDTAVYYCAGGRTGRGTSADTDEYNYWGQGTQVTVSS
modifications: single biotin at the VHH C-terminal (biotinylation signal sequence)
notes: llama VHH, expressed in E. coli TG1, IMAC purified, monomeric SEC fraction; also called VHH # 21; 1-hCD22 1ug-13
